Source: IntAct's records for PubMed 17595294

B1: Glycine--tRNA ligase (Homo sapiens), P41250 (parent)
chain: MPSPRPVLLRGARAALLLLLPPRLLARPSLLLRRSLSAASCPPISLPAAASRSSMDGAGAEEVLAPLRLAVRQQGDLVRKLKEDKAPQVDVDKAVAELKARKRVLEAKELALQPKDDIVDRAKMEDTLKRRFFYDQAFAIYGGVSGLYDFGPVGCALKNNIIQTWRQHFIQEEQILEIDCTMLTPEPVLKTSGHVDKFADFMVKDVKNGECFRADHLLKAHLQKLMSDKKCSVEKKSEMESVLAQLDNYGQQELADLFVNYNVKSPITGNDLSPPVSFNLMFKTFIGPGGNMPGYLRPETAQGIFLNFKRLLEFNQGKLPFAAAQIGNSFRNEISPRSGLIRVREFTMAEIEHFVDPSEKDHPKFQNVADLHLYLYSAKAQVSGQSARKMRLGDAVEQGVINNTVLGYFIGRIYLYLTKVGISPDKLRFRQHMENEMAHYACDCWDAESKTSYGWIEIVGCADRSCYDLSCHARATKVPLVAEKPLKEPKTVNVVQFEPSKGAIGKAYKKDAKLVMEYLAICDECYITEMEMLLNEKGEFTIETEGKTFQLTKDMINVKRFQKTLYVEEVVPNVIEPSFGLGRIMYTVFEHTFHVREGDEQRTFFSFPAVVAPFKCSVLPLSQNQEFMPFVKELSEALTRHGVSHKVDDSSGSIGRRYARTDEIGVAFGVTIDFDTVNKTPHTATLRDRDSMRQIRAEISELPSIVQDLANGNITWADVEARYPLFEGQETGKKETIEE
partner: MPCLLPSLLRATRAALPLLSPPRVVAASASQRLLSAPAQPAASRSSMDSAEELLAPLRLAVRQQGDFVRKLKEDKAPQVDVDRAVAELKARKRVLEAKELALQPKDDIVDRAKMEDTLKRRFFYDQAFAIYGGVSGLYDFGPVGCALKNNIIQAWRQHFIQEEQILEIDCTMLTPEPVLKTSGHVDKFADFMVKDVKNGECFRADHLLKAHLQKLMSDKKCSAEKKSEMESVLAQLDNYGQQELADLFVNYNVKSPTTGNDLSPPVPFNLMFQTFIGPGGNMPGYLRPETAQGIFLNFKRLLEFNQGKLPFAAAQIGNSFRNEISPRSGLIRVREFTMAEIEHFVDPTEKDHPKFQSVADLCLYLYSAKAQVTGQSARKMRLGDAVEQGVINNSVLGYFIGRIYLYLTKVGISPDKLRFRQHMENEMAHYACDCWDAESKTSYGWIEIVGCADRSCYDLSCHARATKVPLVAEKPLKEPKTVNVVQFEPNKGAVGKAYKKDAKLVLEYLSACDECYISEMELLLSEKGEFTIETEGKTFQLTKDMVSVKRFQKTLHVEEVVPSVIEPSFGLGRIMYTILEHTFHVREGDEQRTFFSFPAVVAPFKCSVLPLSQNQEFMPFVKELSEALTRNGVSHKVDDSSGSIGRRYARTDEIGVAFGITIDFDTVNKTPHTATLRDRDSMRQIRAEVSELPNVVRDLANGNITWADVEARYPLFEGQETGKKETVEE

Variants of: B1
Conditions: with gars_mouse Gars1, Q9CZD3
S644L was tested, and the “effect of a mutation on the interaction” value was “increasing interaction strength”. For L183P, the “effect of a mutation on the interaction” value was “disrupting interaction strength”. G580R was tested, and the “effect of a mutation on the interaction” value was “increasing interaction strength”. D554N was tested, and the “effect of a mutation on the interaction” value was “increasing interaction strength”. With G294R the “effect of a mutation on the interaction” value was “disrupting interaction strength”.
